Measured values: the supplement of paper PMC10567573

B1: SASS6 (parent)
chain: QKELQDVGQSLRIKEQEVCKLQEQ

Variants of: B1
Experiment: protein stability index of a GFP-peptide fusion (GPS, HEK-293T) (PSI 1-6); higher = more stable
Conditions: c terminus: a fixed tail appended
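Also: lentivirally expressed fusions sorted by FACS into six bins by GFP to DsRed ratio, PSI derived from sequencing read proportions per bin multiplied by bin number.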

Variant	protein stability index
QKELQDVGQMLRIKEQEVCKLQEQ [S10M]	5.33
QKELQDVGQGLRIKEQEVCKLQEQ [S10G]	4.74
QKELQDVGQKLRIKEQEVCKLQEQ [S10K]	5.1
QKELQDVGQLLRIKEQEVCKLQEQ [S10L]	5
QKELQDVGQDLRIKEQEVCKLQEQ [S10D]	3.74
QKELQDVGQHLRIKEQEVCKLQEQ [S10H]	4.89
QKELQDVGQPLRIKEQEVCKLQEQ [S10P]	4.37
QKELQDVGQQLRIKEQEVCKLQEQ [S10Q]	5.31
QKELQDVGQELRIKEQEVCKLQEQ [S10E]	5.72
QKELQDVGQALRIKEQEVCKLQEQ [S10A]	5
QKELQDVGQWLRIKEQEVCKLQEQ [S10W]	2.66
QKELQDVGQVLRIKEQEVCKLQEQ [S10V]	3.9
QKELQDVGQFLRIKEQEVCKLQEQ [S10F]	4.91
QKELQDVGQYLRIKEQEVCKLQEQ [S10Y]	4.32
QKELQDVGQILRIKEQEVCKLQEQ [S10I]	3.83
QKELQDVGQCLRIKEQEVCKLQEQ [S10C]	4.12
QKELQDVGQTLRIKEQEVCKLQEQ [S10T]	5.48
QKFLQDVGQSLRIKEQEVCKLQEQ [E3F]	3.29
QKHLQDVGQSLRIKEQEVCKLQEQ [E3H]	4.39
QKNLQDVGQSLRIKEQEVCKLQEQ [E3N]	4.88
QKILQDVGQSLRIKEQEVCKLQEQ [E3I]	4.37
QKLLQDVGQSLRIKEQEVCKLQEQ [E3L]	4.92
QKQLQDVGQSLRIKEQEVCKLQEQ [E3Q]	4.68
QKGLQDVGQSLRIKEQEVCKLQEQ [E3G]	4.68

Variant	protein stability index
QKDLQDVGQSLRIKEQEVCKLQEQ [E3D]	5.34
QKALQDVGQSLRIKEQEVCKLQEQ [E3A]	4.92
QKYLQDVGQSLRIKEQEVCKLQEQ [E3Y]	4.4
QKSLQDVGQSLRIKEQEVCKLQEQ [E3S]	5.1
QKMLQDVGQSLRIKEQEVCKLQEQ [E3M]	4.02
QKRLQDVGQSLRIKEQEVCKLQEQ [E3R]	5.25
QKPLQDVGQSLRIKEQEVCKLQEQ [E3P]	3.71
QKWLQDVGQSLRIKEQEVCKLQEQ [E3W]	3.84
QKCLQDVGQSLRIKEQEVCKLQEQ [E3C]	4.83
QKTLQDVGQSLRIKEQEVCKLQEQ [E3T]	5.08
QKVLQDVGQSLRIKEQEVCKLQEQ [E3V]	4.52
QKKLQDVGQSLRIKEQEVCKLQEQ [E3K]	4.63
QKELQDVCQSLRIKEQEVCKLQEQ [G8C]	4.92
QKELQDVVQSLRIKEQEVCKLQEQ [G8V]	4.69
QKELQDVNQSLRIKEQEVCKLQEQ [G8N]	5.12
QKELQDVRQSLRIKEQEVCKLQEQ [G8R]	5.48
QKELQDVMQSLRIKEQEVCKLQEQ [G8M]	4.98
QKELQDVWQSLRIKEQEVCKLQEQ [G8W]	3.84
QKELQDVTQSLRIKEQEVCKLQEQ [G8T]	5.13
QKELQDVHQSLRIKEQEVCKLQEQ [G8H]	5
QKELQDVPQSLRIKEQEVCKLQEQ [G8P]	4.75
QKELQDVKQSLRIKEQEVCKLQEQ [G8K]	5.2
QKELQDVIQSLRIKEQEVCKLQEQ [G8I]	4
QKELQDVEQSLRIKEQEVCKLQEQ [G8E]	5.38

Variant	protein stability index
QKELQDVFQSLRIKEQEVCKLQEQ [G8F]	4.07
QKELQDVYQSLRIKEQEVCKLQEQ [G8Y]	4.18
QKELQDVAQSLRIKEQEVCKLQEQ [G8A]	3.61
QKELQDVDQSLRIKEQEVCKLQEQ [G8D]	5.26
QKELQDVLQSLRIKEQEVCKLQEQ [G8L]	3.83
QKELQDVSQSLRIKEQEVCKLQEQ [G8S]	5
QKELQDVGESLRIKEQEVCKLQEQ [Q9E]	4.49
QKELQDVGASLRIKEQEVCKLQEQ [Q9A]	5.52
QKELQDVGDSLRIKEQEVCKLQEQ [Q9D]	5.71
QKELQDVGPSLRIKEQEVCKLQEQ [Q9P]	5.56
QKELQDVGNSLRIKEQEVCKLQEQ [Q9N]	5.67
QKELQDVGRSLRIKEQEVCKLQEQ [Q9R]	5.1
QKELQDVGTSLRIKEQEVCKLQEQ [Q9T]	5.23
QKELQDVGGSLRIKEQEVCKLQEQ [Q9G]	5.02
QKELQDVGKSLRIKEQEVCKLQEQ [Q9K]	5.3
QKELQDVGSSLRIKEQEVCKLQEQ [Q9S]	4.47
QKELQDVGCSLRIKEQEVCKLQEQ [Q9C]	4.76
QKELQDVGHSLRIKEQEVCKLQEQ [Q9H]	5.05
QKELQDVGFSLRIKEQEVCKLQEQ [Q9F]	4.13
QKELQDVGMSLRIKEQEVCKLQEQ [Q9M]	4.67
QKELQDVGYSLRIKEQEVCKLQEQ [Q9Y]	4.87
QKELQDVGISLRIKEQEVCKLQEQ [Q9I]	4.97
QKELQDVGLSLRIKEQEVCKLQEQ [Q9L]	4.84
QTELQDVGQSLRIKEQEVCKLQEQ [K2T]	5.34

Variant	protein stability index
QYELQDVGQSLRIKEQEVCKLQEQ [K2Y]	4.98
QIELQDVGQSLRIKEQEVCKLQEQ [K2I]	4.88
QSELQDVGQSLRIKEQEVCKLQEQ [K2S]	5.43
QPELQDVGQSLRIKEQEVCKLQEQ [K2P]	4.2
QFELQDVGQSLRIKEQEVCKLQEQ [K2F]	4.02
QAELQDVGQSLRIKEQEVCKLQEQ [K2A]	4.58
QHELQDVGQSLRIKEQEVCKLQEQ [K2H]	5.46
QCELQDVGQSLRIKEQEVCKLQEQ [K2C]	5.29
QEELQDVGQSLRIKEQEVCKLQEQ [K2E]	5.48
QMELQDVGQSLRIKEQEVCKLQEQ [K2M]	5.1
QLELQDVGQSLRIKEQEVCKLQEQ [K2L]	4.97
QGELQDVGQSLRIKEQEVCKLQEQ [K2G]	4.65
QDELQDVGQSLRIKEQEVCKLQEQ [K2D]	5.26
QKECQDVGQSLRIKEQEVCKLQEQ [L4C]	4.06
QKESQDVGQSLRIKEQEVCKLQEQ [L4S]	5.41
QKEGQDVGQSLRIKEQEVCKLQEQ [L4G]	5.59
QKETQDVGQSLRIKEQEVCKLQEQ [L4T]	5.23
QKERQDVGQSLRIKEQEVCKLQEQ [L4R]	4.96
QKEWQDVGQSLRIKEQEVCKLQEQ [L4W]	4.82
QKEFQDVGQSLRIKEQEVCKLQEQ [L4F]	5.11
QKENQDVGQSLRIKEQEVCKLQEQ [L4N]	5.1
QKEKQDVGQSLRIKEQEVCKLQEQ [L4K]	4.87
